Laboratory results: publication PMC7327620
Several values for one entry are separate records, joined by “and”; a condition that tells them apart may be missing. Identical values can stand only once.

Molecular target: Tailless ΔHoc T4 phage capsids (bacteriophage T4) (UniProt P19896)
Test: native gel or EMSA; Mal–Hoc mixed with ΔHoc T4 capsids at a series of molar ratios; 22°C for 2 h or overnight (16 h) in PBS with 10 mM MgCl2; 1% agarose, 100 V for 2 h, 1x Tris–Acetate–EDTA; GelCode blue protein stain

Maltase–SC–St–Hoc fusion (complex) was tested, and the stoichiometry N (Mal–Hoc per capsid) was 60 to 120 (2×) and 90.
